Drawing on paper PMC3548793, this text covers other: normalized ratio of co-IP'ed Sec31 and ratio to parent for four molecules.

T1: GFP-Sec13, P55735
T1 chain: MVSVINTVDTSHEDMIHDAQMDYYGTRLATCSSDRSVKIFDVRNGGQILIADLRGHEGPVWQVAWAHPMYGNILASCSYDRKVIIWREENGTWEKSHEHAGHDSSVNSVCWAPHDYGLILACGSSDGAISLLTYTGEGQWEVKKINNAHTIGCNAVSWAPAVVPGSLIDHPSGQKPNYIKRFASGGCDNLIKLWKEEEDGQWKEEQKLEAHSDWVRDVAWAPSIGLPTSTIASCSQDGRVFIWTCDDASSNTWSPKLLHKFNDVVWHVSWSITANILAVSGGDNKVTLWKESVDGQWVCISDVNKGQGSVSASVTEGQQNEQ

B1: FLAG-tagged wild type (WT) Sec31, O94979 S527A (protein)
chain: MKLKEVDRTAMQAWSPAQNHPIYLATGTSAQQLDATFSTNASLEIFELDLSDPSLDMKSCATFSSSHRYHKLIWGPYKMDSKGDVSGVLIAGGENGNIILYDPSKIIAGDKEVVIAQNDKHTGPVRALDVNIFQTNLVASGANESEIYIWDLNNFATPMTPGAKTQPPEDISCIAWNRQVQHILASASPSGRATVWDLRKNEPIIKVSDHSNRMHCSGLAWHPDVATQMVLASEDDRLPVIQMWDLRFASSPLRVLENHARGILAIAWSMADPELLLSCGKDAKILCSNPNTGEVLYELPTNTQWCFDIQWCPRNPAVLSAASFDGRISVYSIMGGSTDGLRQKQVDKLSSSFGNLDPFGTGQPLPPLQIPQQTAQHSIVLPLKKPPKWIRRPVGASFSFGGKLVTFENVRMPSHQGAEQQQQQHHVFISQVVTEKEFLSRSDQLQQAVQSQGFINYCQKKIDASQTEFEKNVWSFLKVNFEDDSRGKYLELLGYRKEDLGKKIALALNKVDGANVALKDSDQVAQADGEESPAAEEQLLGEHIKEEKEESEFLPSSGGTFNISVSGDIDGLITQALLTGNFESAVDLCLHDNRMADAIILAIAGGQELLARTQKKYFAKSQSKITRLITAVVMKNWKEIVESCDLKNWREALAAVLTYAKPDEFSALCDLLGTRLENEGDSLLQTQACLCYICAGNVEKLVACWTKAQDGSHPLSLQDLIEKVVILRKAVQLTQAMDTSTVGVLLAAKMSQYANLLAAQGSIAAALAFLPDNTNQPNIMQLRDRLCRAQGEPVAGHESPKIPYEKQQLPKGRPGPVAGHHQMPRVQTQQYYPHGENPPPPGFIMHGNVNPNAAGQLPTSPGHMHTQVPPYPQPQPYQPAQPYPFGTGGSAMYRPQQPVAPPTSNAYPNTPYISSASSYTGQSQLYAAQHQASSPTSSPATSFPPPPSSGASFQHGGPGAPPSSSAYALPPGTTGTLPAASELPASQRTGPQNGWNDPPALNRVPKKKKMPENFMPPVPITSPIMNPLGDPQSQMLQQQPSAPVPLSSQSSFPQPHLPGGQPFHGVQQPLGQTGMPPSFSKPNIEGAPGAPIGNTFQHVQSLPTKKITKKPIPDEHLILKTTFEDLIQRCLSSATDPQTKRKLDDASKRLEFLYDKLREQTLSPTITSGLHNIARSIETRNYSEGLTMHTHIVSTSNFSETSAFMPVLKVVLTQANKLGV
B2: FLAG-tagged wild type (WT) Sec31, O94979 S527A; S799A; T1165A (protein)
chain: B1 chain with S799A, T1165A
B3: FLAG-tagged wild type (WT) Sec31, O94979 S799A (protein)
chain: B1 chain with A527S, S799A
B4: FLAG-tagged wild type (WT) Sec31, O94979 S527A; S799A (protein)
chain: B1 chain with S799A

Where a chain is given by its changes, count along the chain named. Numbers in names are those of the source.

For the first experiment, the target named is T1, GFP-Sec13, P55735. The experiment in a line: co-immunoprecipitation and western blotting. Particulars: chain shown with the change;; parent: 0.8. A general note: In western blotting, separated proteins are transferred to a membrane and probed.
As for B1, the other: normalized ratio of co-IP'ed Sec31 worked out at 1.

For the molecule B2, the other: normalized ratio of co-IP'ed Sec31 turned out to be 1.4.

For the molecule B3, the other: normalized ratio of co-IP'ed Sec31 was 1.

Take B4: the other: normalized ratio of co-IP'ed Sec31 was 1.2.

In a further experiment the target is GFP-tagged Sec23, Q15436. The experiment in a line: co-immunoprecipitation (anti-GFP beads) and western blotting, mean of three experiments. Particulars: chain shown with the change; HEK293 cells co-transfected; parent: est. 1.0; read off a plot.
Chain of GFP-tagged Sec23, Q15436 (Q15436 whole entry): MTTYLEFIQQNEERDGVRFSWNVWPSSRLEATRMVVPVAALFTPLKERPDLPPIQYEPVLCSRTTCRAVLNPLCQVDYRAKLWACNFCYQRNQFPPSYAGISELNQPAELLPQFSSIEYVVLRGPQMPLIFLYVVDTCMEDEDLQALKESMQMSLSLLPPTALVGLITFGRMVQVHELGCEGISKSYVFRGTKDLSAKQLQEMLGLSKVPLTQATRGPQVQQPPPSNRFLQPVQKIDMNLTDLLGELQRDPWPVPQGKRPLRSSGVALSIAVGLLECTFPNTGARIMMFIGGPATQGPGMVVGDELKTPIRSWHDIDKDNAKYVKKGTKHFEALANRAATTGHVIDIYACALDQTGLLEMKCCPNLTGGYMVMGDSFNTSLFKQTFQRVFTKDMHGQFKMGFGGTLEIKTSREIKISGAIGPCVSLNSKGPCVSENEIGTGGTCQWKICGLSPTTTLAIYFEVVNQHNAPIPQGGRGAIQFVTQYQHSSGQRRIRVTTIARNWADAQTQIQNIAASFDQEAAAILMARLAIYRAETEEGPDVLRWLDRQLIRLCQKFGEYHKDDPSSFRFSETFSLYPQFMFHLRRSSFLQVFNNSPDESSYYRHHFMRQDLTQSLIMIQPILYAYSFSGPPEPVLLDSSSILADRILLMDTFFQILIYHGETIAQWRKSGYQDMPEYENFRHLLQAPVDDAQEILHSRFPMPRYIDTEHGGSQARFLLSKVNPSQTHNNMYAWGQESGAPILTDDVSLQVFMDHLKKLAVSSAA
B1: the ratio to parent was 0.9.

Take B2: the ratio to parent came to 2.3.

In the case of B3, the ratio to parent is 1.5.

A further experiment has as its target GFP-tagged Sec23, Q15436. The experiment in a line: co-immunoprecipitation (anti-GFP beads) and western blotting, single blot quantified. Particulars: chain shown with the change; HEK293 cells co-transfected; parent: 1.
With B1, the ratio to parent worked out at 1.

On to B2, for which the ratio to parent is 2.3.

For the molecule B3, the ratio to parent worked out at 1.4.
